# Laboratory results published in patent publication US20200377590A1 (Hoffmann-La Roche, published 2020).
# Numbering of substitutions follows the chain as printed.
# T1: CD81 (UniProt P60033 1-236, limits assumed)
# T1 construct: whole, on cells; also called CD81 receptor
# T1 sequence (looked up): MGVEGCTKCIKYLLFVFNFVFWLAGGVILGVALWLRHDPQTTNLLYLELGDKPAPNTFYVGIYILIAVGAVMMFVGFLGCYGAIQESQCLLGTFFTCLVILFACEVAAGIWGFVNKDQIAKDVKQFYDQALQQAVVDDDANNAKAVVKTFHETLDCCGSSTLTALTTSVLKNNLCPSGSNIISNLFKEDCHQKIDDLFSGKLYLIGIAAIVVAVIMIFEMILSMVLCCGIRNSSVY
# B1: CD81K04 HC CD81K04 / LC GG-06-hVK_1_39 (antibody, V domains shown)
# VH: QVQLQQSGPELVKPGASVKISCKASGYTFSSSWMNWVKQRPGKGLEWIGRIYSGDGDAIYNGKFKGKATLTADKSSSTAYMQLSSLTSEDSAVYFCAREGKTGDLLLRSWGQGSALTVSS
# VL: DIQMTQSPSSLSASVGDRVTITCRASKSVSTSIYSYLNWYQQKPGKAPKLLIYYASYLQSGVPSRFSGSGSGTDFTLTISSLQPEDFATYYCQHSREFPYTFGQGTKLEIK
# notes: human constant region
# B2: CD81K04 HC JA_GG-13-hVH_1_69 / LC GG-05-hVK_3_11 (antibody, V domains shown)
# VH: QVQLVQSGAEVKKPGSSVKVSCKASGGTFSSSWMNWVRQAPGQGLEWMGRIYSGDGDAIYAQKFQGRVTITADESTSTAYMELSSLRSEDTAVYYCAREGKTGDLLLRSWGQGTLVTVSS
# VL: EIVLTQSPATLSLSPGERATLSCRASKSVSTSIYSYLHWYQQKPGQAPRLLIYYASNRETGIPARFSGSGSGTDFTLTISSLEPEDFAVYYCQHSREFPFTFGQGTKLEIK
# notes: human constant region
# B3: CD81K04 HC GG-02-hVH_1_69 / LC GG-06-hVK_1_39 (antibody, V domains shown)
# VH: B2 VH with G27Y, A61N
# VL: B1 VL
# notes: human constant region
# B4: CD81K04 HC GG-02-hVH_1_69 / LC CD81K04 (antibody, V domains shown)
# VH: B2 VH with G27Y, A61N
# VL: DIVLTQSPASLSVSLGQRATISCRASKSVSTSIYSYMHWYQQKPGQPPKLLIKYASYLESGVPARFSGSGSGTDFTLNIHPVEEEDAATYYCEHSREFPFTFGTGTKLEIK
# notes: human constant region
# B5: CD81K04 HC JA_GG-14-hVH_1_69 / LC GG-05-hVK_3_11 (antibody, V domains shown)
# VH: B2 VH with G27Y, A61N, Q62G, Q65K, R67K, V68A
# VL: B2 VL
# notes: human constant region
# B6: CD81K04 HC JA_GG-13-hVH_1_69 / LC GG-06-hVK_1_39 (antibody, V domains shown)
# VH: B2 VH
# VL: B1 VL
# notes: human constant region
# B7: CD81K04 HC GG-04-hVH_1_69 / LC CD81K04 (antibody, V domains shown)
# VH: B2 VH with G27Y, A61N, V68A
# VL: B4 VL
# notes: human constant region
# B8: CD81K04 HC JA_GG-14-hVH_1_3 / LC GG-06-hVK_1_39 (antibody, V domains shown)
# VH: B2 VH with S16A, G27Y, A61N, Q62G, Q65K, V68A, E74T, T76A
# VL: B1 VL
# notes: human constant region
# B9: CD81K04 HC JA_GG-14-hVH_1_69 / LC GG-06-hVK_1_39 (antibody, V domains shown)
# VH: B2 VH with G27Y, A61N, Q62G, Q65K, R67K, V68A
# VL: B1 VL
# notes: human constant region
# B10: CD81K04 HC JA_GG-15-hVH_1_3 / LC CD81K04 (antibody, V domains shown)
# VH: B2 VH with S16A, G27Y, G44R, A61N, Q62G, Q65K, E74T, T76A
# VL: B4 VL
# notes: human constant region
# B11: CD81K04 HC GG-03-hVH_1_69 / LC GG-06-hVK_1_39 (antibody, V domains shown)
# VH: B2 VH with G27Y
# VL: B1 VL
# notes: human constant region
# B12: CD81K04 HC JA_GG-14-hVH_1_69-GA / LC GG-06-hVK_1_39 (antibody, V domains shown)
# VH: B2 VH with G27Y, A61N, Q62G, Q65K, R67K, V68A
# VL: B1 VL
# notes: human constant region
# B13: CD81K04 HC JA_GG-16-hVH_1_3 / LC GG-06-hVK_1_39 (antibody, V domains shown)
# VH: B2 VH with S16A, G27Y, A61N, Q62G, Q65K, E74T, T76A
# VL: B1 VL
# notes: human constant region
# B14: CD81K04 HC JA_GG-16-hVH_1_3 / LC CD81K04 (antibody, V domains shown)
# VH: B2 VH with S16A, G27Y, A61N, Q62G, Q65K, E74T, T76A
# VL: B4 VL
# notes: human constant region
# B15: CD81K04 HC K04_JA-13-hVH_1_3 / LC GG-06-hVK_1_39 (antibody, V domains shown)
# VH: B2 VH with S16A, G27Y, G44R, A61N, Q62G, Q65K, A72R, E74T, T76A
# VL: B1 VL
# notes: human constant region
# B16: CD81K04 HC GG-06-hVH_1_69 / LC CD81K04 (antibody, V domains shown)
# VH: B2 VH with G27Y, N35C, R50C, A61N
# VL: B4 VL
# notes: human constant region
# B17: CD81K04 HC JA_GG-15-hVH_1_3 / LC GG-05-hVK_3_11 (antibody, V domains shown)
# VH: B2 VH with S16A, G27Y, G44R, A61N, Q62G, Q65K, E74T, T76A
# VL: B2 VL
# notes: human constant region
# B18: CD81K04 HC JA_GG-14-hVH_1_69-GA / LC GG-05-hVK_3_11 (antibody, V domains shown)
# VH: B2 VH with G27Y, A61N, Q62G, Q65K, R67K, V68A
# VL: B2 VL
# notes: human constant region
# B19: CD81K04 HC JA_GG-14-hVH_1_69 / LC CD81K04 (antibody, V domains shown)
# VH: B2 VH with G27Y, A61N, Q62G, Q65K, R67K, V68A
# VL: B4 VL
# notes: human constant region
# B20: CD81K04 HC JA_GG-13-hVH_1_69 / LC CD81K04 (antibody, V domains shown)
# VH: B2 VH
# VL: B4 VL
# notes: human constant region
# B21: CD81K04 HC GG-04-hVH_1_69 / LC GG-06-hVK_1_39 (antibody, V domains shown)
# VH: B2 VH with G27Y, A61N, V68A
# VL: B1 VL
# notes: human constant region
# B22: CD81K04 HC JA_GG-14-hVH_1_3 / LC GG-05-hVK_3_11 (antibody, V domains shown)
# VH: B2 VH with S16A, G27Y, A61N, Q62G, Q65K, V68A, E74T, T76A
# VL: B2 VL
# notes: human constant region
# B23: CD81K04 HC K04_JA-13-hVH_1_3 / LC GG-05-hVK_3_11 (antibody, V domains shown)
# VH: B2 VH with S16A, G27Y, G44R, A61N, Q62G, Q65K, A72R, E74T, T76A
# VL: B2 VL
# notes: human constant region
# B24: CD81K04 HC JA_GG-14-hVH_1_3 / LC CD81K04 (antibody, V domains shown)
# VH: B2 VH with S16A, G27Y, A61N, Q62G, Q65K, V68A, E74T, T76A
# VL: B4 VL
# notes: human constant region
# B25: CD81K04 HC K04_JA-13-hVH_1_3 / LC CD81K04 (antibody, V domains shown)
# VH: B2 VH with S16A, G27Y, G44R, A61N, Q62G, Q65K, A72R, E74T, T76A
# VL: B4 VL
# notes: human constant region
# B26: CD81K04 HC JA_GG-14-hVH_1_69-GA / LC CD81K04 (antibody, V domains shown)
# VH: B2 VH with G27Y, A61N, Q62G, Q65K, R67K, V68A
# VL: B4 VL
# notes: human constant region
# B27: CD81K04 HC GG-05-hVH_1_18 / LC GG-06-hVK_1_39 (antibody, V domains shown)
# VH: B2 VH with S16A, G27Y, F64L, I70M, A72T, E74T, S84R, E89D
# VL: B1 VL
# notes: human constant region
# B28: CD81K04 HC GG-03-hVH_1_69 / LC CD81K04 (antibody, V domains shown)
# VH: B2 VH with G27Y
# VL: B4 VL
# notes: human constant region
# B29: CD81K04 HC JA_GG-15-hVH_1_3 / LC GG-06-hVK_1_39 (antibody, V domains shown)
# VH: B2 VH with S16A, G27Y, G44R, A61N, Q62G, Q65K, E74T, T76A
# VL: B1 VL
# notes: human constant region
# B30: CD81K04 HC K04_JA_GG-17-hVH_1_3 / LC GG-06-hVK_1_39 (antibody, V domains shown)
# VH: B2 VH with S16A, G27Y, G44R, A58T, A61S, E74T, T76A
# VL: B1 VL
# notes: human constant region
# B31: CD81K04 HC JA_GG-16-hVH_1_3 / LC GG-05-hVK_3_11 (antibody, V domains shown)
# VH: B2 VH with S16A, G27Y, A61N, Q62G, Q65K, E74T, T76A
# VL: B2 VL
# notes: human constant region
# Molecular target: T1, CD81
# Test: cell ELISA;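 further: antibody binding to HuH7 cells expressing CD81 versus a CD81-negative HuH7 control line, bound antibody detected by secondary reagent, absorbance at 450 nm with 620 nm reference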
# Protocol: For the binding cell ELISA assay, HuH7-Rluc-H3 (positive cell line expressing CD81) and HuH7-Rluc-L1 (negative control cell line) were propagated in F-12 DMEM medium with 10% FCS at 37° C. and 5% CO₂. On day 1, the cells were trypsinized at approximately 90% confluence and resuspended at 4×10⁵ cells/mL. […] On day 2, the antibody samples to be tested were prepared in a separate polypropylene round bottom plate with a twofold desired concentration with a final volume of 120 μl. All of the assay samples were diluted in cell culture medium. […] After fixation, each well was washed 3 times with 200 μL PBS/0.05% Tween. The secondary incubation step for detection of bound anti-CD81 antibodies was performed for 2 h at room temperature on a reciprocal shaker. […] Each well was washed three times with 200 μL PBS/0.05% Tween to remove unbound antibodies. […] The absorbance was read using the ELISA Tecan reader at 450 nm with 620 nm reference wavelength.
row,ELISA data,Binder
1,0.185,B1
2,0.228,B2
3,0.08,B3
4,0.918,B4
5,0.403,B5
6,0.119,B6
7,0.859,B7
8,0.091,B8
9,0.091,B9
10,1,B10
11,0.064,B11
12,0.066,B12
13,0.08,B13
14,0.98,B14
15,0.064,B15
16,0.342,B16

row,ELISA data,Binder
1,0.699,B17
2,0.376,B18
3,0.996,B19
4,0.564,B20
5,0.067,B21
6,0.696,B22
7,0.56,B23
8,0.998,B24
9,0.974,B25
10,0.877,B26
11,0.149,B27
12,0.843,B28
13,0.079,B29
14,0.123,B30
15,0.631,B31
